Data from PMC7380666.

Assay: purification, SEC and SDS-PAGE
Conditions: glycan lost; control: wild-type mCD98hcED

B1: mCD98hcED (murine CD98hc extracellular domain): N385D/T401A (protein)
parent chain: MSQDTEVDMKDVELNELEPEKQPMNAADGAAAGEKNGLVKIKVAEDETEAGVKFTGLSKEELLKVAGSPGWVRTRWALLLLFWLGWLGMLAGAVVIIVRAPRCRELPVQRWWHKGALYRIGDLQAFVGRDAGGIAGLKSHLEYLSTLKVKGLVLGPIHKNQKDEINETDLKQINPTLGSQEDFKDLLQSAKKKSIHIILDLTPNYQGQNAWFLPAQADIVATKMKEALSSWLQDGVDGFQFRDVGKLMNAPLYLAEWQNITKNLSEDRLLIAGTESSDLQQIVNILESTSDLLLTSSYLSNSTFTGERTESLVTRFLNATGSQWCSWSVSQAGLLADFIPDHLLRLYQLLLFTLPGTPVFSYGDELGLQGALPGQPAKAPLMPWNESSIFHIPRPVSLNMTVKGQNEDPGSLLTQFRRLSDLRGKERSLLHGDFHALSSSPDLFSYIRHWDQNERYLVVLNFRDSGRSARLGASNLPAGISLPASAKLLLSTDSARQSREEDTSLKLENLSLNPYEGLLLQFPFVA
With B1 as the protein, how does the stability_or_folding read?
Its stability_or_folding is “no change”.
